Here are results for one protein from patent publication US20120164670.

Data set [1] addresses DBC1, Q8N163.
Data set [2] has as its target T1, H3K9ac substrate (TARK(ac)STG).
T1 chain: TARKSTG

The target in data set [3] is Fleur de Lys peptide (BIOMOL).

Sequence of DBC1, Q8N163 (Q8N163 whole entry, looked up): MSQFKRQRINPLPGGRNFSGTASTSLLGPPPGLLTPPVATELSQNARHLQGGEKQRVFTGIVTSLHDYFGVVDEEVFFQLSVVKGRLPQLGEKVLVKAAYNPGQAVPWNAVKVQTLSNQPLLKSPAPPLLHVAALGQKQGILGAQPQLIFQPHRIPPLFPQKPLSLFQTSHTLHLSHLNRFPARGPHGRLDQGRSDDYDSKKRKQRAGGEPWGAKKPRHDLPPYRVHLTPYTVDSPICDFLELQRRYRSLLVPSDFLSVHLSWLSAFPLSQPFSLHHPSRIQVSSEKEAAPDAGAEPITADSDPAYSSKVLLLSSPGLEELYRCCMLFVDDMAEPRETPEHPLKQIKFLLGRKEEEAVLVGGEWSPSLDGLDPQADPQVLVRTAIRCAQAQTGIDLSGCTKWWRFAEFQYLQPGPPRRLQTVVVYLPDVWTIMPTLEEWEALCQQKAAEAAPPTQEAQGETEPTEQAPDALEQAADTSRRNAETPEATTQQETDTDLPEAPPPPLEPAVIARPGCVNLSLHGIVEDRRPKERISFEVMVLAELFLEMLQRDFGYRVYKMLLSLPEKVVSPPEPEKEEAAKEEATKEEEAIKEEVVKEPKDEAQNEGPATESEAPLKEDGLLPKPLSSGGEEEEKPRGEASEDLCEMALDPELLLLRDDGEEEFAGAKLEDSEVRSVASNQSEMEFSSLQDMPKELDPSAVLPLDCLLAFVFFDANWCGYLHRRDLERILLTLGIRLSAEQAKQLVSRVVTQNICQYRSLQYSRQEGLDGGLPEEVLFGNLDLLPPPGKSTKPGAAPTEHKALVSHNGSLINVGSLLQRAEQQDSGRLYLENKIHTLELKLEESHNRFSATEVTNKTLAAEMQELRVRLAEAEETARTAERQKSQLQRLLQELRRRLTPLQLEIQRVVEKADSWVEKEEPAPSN

B1: full-length human SIRT1 enzyme (protein)
chain: ADEAALALQPGGSPSAAGADREAASSPAGEPLRKRPRRDGPGLERSPGEPGGAAPEREVPAAARGCPGAAAAALWREAEAEAAAAGGEQEAQATAAAGEGDNGPGLQGPSREPPLADNLYDEDDDDEGEEEEEAAAAAIGYRDNLLFGDEIITNGFHSCESDEEDRASHASSSDWTPRPRIGPYTFVQQHLMIGTDPRTILKDLLPETIPPPELDDMTLWQIVINILSEPPKRKKRKDINTIEDAVKLLQECKKIIVLTGAGVSVSCGIPDFRSRDGIYARLAVDFPDLPDPQAMFDIEYFRKDPRPFFKFAKEIYPGQFQPSLCHKFIALSDKEGKLLRNYTQNIDTLEQVAGIQRIIQCHGSFATASCLICKYKVDCEAVRGDIFNQVVPRCPRCPADEPLAIMKPEIVFFGENLPEQFHRAMKYDKDEVDLLIVIGSSLKVRPVALIPSSIPHEVPQILINREPLPHLHFDVELLGDCDVIINELCHRLGGEYAKLCCNPVKLSEITEKPPRTQKELAYLSELPPTPLHVSEDSSSPERTSPPDSSVIVTLLDQAAKSNDDLDVSESKGCMEEKPQEVQTSRNVESIAEQMENPDLKNVGSSTGEKNERTSVAGTVRKCWPNRVAKEQISRRLDGNQYLFLPPNRYIFHGAEVYSDSEDDVLSSSSCGSNSDSGTCQSPSLEEPMEDESEIEEFYNGLEDEPDVPERAGGAGFGTDGDDQEAINEAISVKQEVTDMNYPSNKS
On to B1, for which the “SIRT1 activity (PNC1-OPT assay, dose titration of DBC1, H3K9-L peptide substrate)” value in data set [1] is on record as “DBC1 concentration inversely correlates with SIRT1 activity”. Moreover, the “Km (stated in the kit protocol for the SIRT1 deacetylation reaction)” value in data set [2] was “final concentration=50 uM (Km)”. Moreover, in data set [3], the “Km (PNC1-OPT nicotinamide assay, SIRT1 deacetylation)” value was “˜130.2 uM”.
